The text below walks through data of article PMC12959268, “Mapping the nonribosomal specificity code through promiscuity-guided A-domain engineering” (Chemical Science, 2026).

Holding throughout (experiment): MesG/hydroxylamine adenylation assay (pyrophosphate release)
Holding throughout (format): biochemical, Bacillus subtilis
What all share (conditions): 5 mM ATP, 5 mM MgCl2, 150 mM hydroxylamine, pH 7.6, 30 °C

Substrate in data set [1]: CC(C)C[C@H](N)C(=O)O
Substrate in data set [2]: CSCC[C@H](N)C(=O)O
Substrate in data set [3]: N[C@@H](Cc1ccccc1)C(=O)O

B1: SrfAC (Bacillus subtilis subsp. subtilis str. 168) (protein)
chain: MSQFSKDQVQDMYYLSPMQEGMLFHAILNPGQSFYLEQITMKVKGSLNIKCLEESMNVIMDRYDVFRTVFIHEKVKRPVQVVLKKRQFHIEEIDLTHLTGSEQTAKINEYKEQDKIRGFDLTRDIPMRAAIFKKAEESFEWVWSYHHIILDGWCFGIVVQDLFKVYNALREQKPYSLPPVKPYKDYIKWLEKQDKQASLRYWREYLEGFEGQTTFAEQRKKQKDGYEPKELLFSLSEAETKAFTELAKSQHTTLSTALQAVWSVLISRYQQSGDLAFGTVVSGRPAEIKGVEHMVGLFINVVPRRVKLSEGITFNGLLKRLQEQSLQSEPHQYVPLYDIQSQADQPKLIDHIIVFENYPLQDAKNEESSENGFDMVDVHVFEKSNYDLNLMASPGDEMLIKLAYNENVFDEAFILRLKSQLLTAIQQLIQNPDQPVSTINLVDDREREFLLTGLNPPAQAHETKPLTYWFKEAVNANPDAPALTYSGQTLSYRELDEEANRIARRLQKHGAGKGSVVALYTKRSLELVIGILGVLKAGAAYLPVDPKLPEDRISYMLADSAAACLLTHQEMKEQAAELPYTGTTLFIDDQTRFEEQASDPATAIDPNDPAYIMYTSGTTGKPKGNITTHANIQGLVKHVDYMAFSDQDTFLSVSNYAFDAFTFDFYASMLNAARLIIADEHTLLDTERLTDLILQENVNVMFATTALFNLLTDAGEDWMKGLRCILFGGERASVPHVRKALRIMGPGKLINCYGPTEGTVFATAHVVHDLPDSISSLPIGKPISNASVYILNEQSQLQPFGAVGELCISGMGVSKGYVNRADLTKEKFIENPFKPGETLYRTGDLARWLPDGTIEYAGRIDDQVKIRGHRIELEEIEKQLQEYPGVKDAVVVADRHESGDASINAYLVNRTQLSAEDVKAHLKKQLPAYMVPQTFTFLDELPLTTNGKVNKRLLPKPDQDQLAEEWIGPRNEMEETIAQIWSEVLGRKQIGIHDDFFALGGHSLKAMTAASRIKKELGIDLPVKLLFEAPTIAGISAYLKNGGSDGLQDVTIMNQDQEQIIFAFPPVLGYGLMYQNLSSRLPSYKLCAFDFIEEEDRLDRYADLIQKLQPEGPLTLFGYSAGCSLAFEAAKKLEEQGRIVQRIIMVDSYKKQGVSDLDGRTVESDVEALMNVNRDNEALNSEAVKHGLKQKTHAFYSYYVNLISTGQVKADIDLLTSGADFDMPEWLASWEEATTGVYRVKRGFGTHAEMLQGETLDRNAEILLEFLNTQTVTVS
notes: full module C-A-T-TE, C-terminal His6 tag, holo form, from pTrc99a-srfAC in E. coli HM0079
On to B1, for which the Km (usually the concentration of substrate that gives half-maximal velocity) in data set [1] came out at 13 ± 1 µM.

B2: SrfAC (Bacillus subtilis subsp. subtilis str. 168; A660V/C752A/F702S) (protein)
chain: MSQFSKDQVQDMYYLSPMQEGMLFHAILNPGQSFYLEQITMKVKGSLNIKCLEESMNVIMDRYDVFRTVFIHEKVKRPVQVVLKKRQFHIEEIDLTHLTGSEQTAKINEYKEQDKIRGFDLTRDIPMRAAIFKKAEESFEWVWSYHHIILDGWCFGIVVQDLFKVYNALREQKPYSLPPVKPYKDYIKWLEKQDKQASLRYWREYLEGFEGQTTFAEQRKKQKDGYEPKELLFSLSEAETKAFTELAKSQHTTLSTALQAVWSVLISRYQQSGDLAFGTVVSGRPAEIKGVEHMVGLFINVVPRRVKLSEGITFNGLLKRLQEQSLQSEPHQYVPLYDIQSQADQPKLIDHIIVFENYPLQDAKNEESSENGFDMVDVHVFEKSNYDLNLMASPGDEMLIKLAYNENVFDEAFILRLKSQLLTAIQQLIQNPDQPVSTINLVDDREREFLLTGLNPPAQAHETKPLTYWFKEAVNANPDAPALTYSGQTLSYRELDEEANRIARRLQKHGAGKGSVVALYTKRSLELVIGILGVLKAGAAYLPVDPKLPEDRISYMLADSAAACLLTHQEMKEQAAELPYTGTTLFIDDQTRFEEQASDPATAIDPNDPAYIMYTSGTTGKPKGNITTHANIQGLVKHVDYMAFSDQDTFLSVSNYAFDVFTFDFYASMLNAARLIIADEHTLLDTERLTDLILQENVNVMSATTALFNLLTDAGEDWMKGLRCILFGGERASVPHVRKALRIMGPGKLINAYGPTEGTVFATAHVVHDLPDSISSLPIGKPISNASVYILNEQSQLQPFGAVGELCISGMGVSKGYVNRADLTKEKFIENPFKPGETLYRTGDLARWLPDGTIEYAGRIDDQVKIRGHRIELEEIEKQLQEYPGVKDAVVVADRHESGDASINAYLVNRTQLSAEDVKAHLKKQLPAYMVPQTFTFLDELPLTTNGKVNKRLLPKPDQDQLAEEWIGPRNEMEETIAQIWSEVLGRKQIGIHDDFFALGGHSLKAMTAASRIKKELGIDLPVKLLFEAPTIAGISAYLKNGGSDGLQDVTIMNQDQEQIIFAFPPVLGYGLMYQNLSSRLPSYKLCAFDFIEEEDRLDRYADLIQKLQPEGPLTLFGYSAGCSLAFEAAKKLEEQGRIVQRIIMVDSYKKQGVSDLDGRTVESDVEALMNVNRDNEALNSEAVKHGLKQKTHAFYSYYVNLISTGQVKADIDLLTSGADFDMPEWLASWEEATTGVYRVKRGFGTHAEMLQGETLDRNAEILLEFLNTQTVTVS
notes: as for B1
Consider B2, for which the figures for the Km in data set [1], in data set [2] and in data set [3] were 510 ± 50 µM, 4600 ± 900 µM and 1300 ± 100 µM, respectively.
